The values that follow come from US20200370067.

Series [1] concerns SHS231 left TALEN (synthetic). Put plainly: cell_activity. The following applies: as pair with right TALEN; 1/81 clones, 293T.
Series [2] deals with SHS231 right TALEN (synthetic). Description: cell_activity. The following applies: as pair with left TALEN; 1/81 clones, 293T.

For “TTGGCTAGGGCTAAGGATTA (double strand) [SHS231 left TALEN half-site]”, the activity (% targeted integration) in series [1] turned out to be 1.23.
Regarding “TGTATGCTTTCCTCTTGTTA (double strand) [SHS231 right TALEN half-site]”, in series [2], the activity (% targeted integration) was found to be 1.23.
